Earlier results, collected in patent US20240401145A1, “METHOD FOR PREDICTING THE RESPONSE OF A PATIENT DIAGNOSED WITH CANCER TO TREATMENT AND/OR IMAGING WITH A COMPOUND TARGETING CCK2-R, AND COMPOUND FOR USE IN METHODS OF SELECTIVELY TREATING AND/OR IMAGING CANCER” (Paul Scherrer Institut, priority 2021, published 2024).
Ends that are not written are not given here.

Assays:
CCK2-R = target: T1, CCK2-R (Homo sapiens, UniProt P32239); conditions: known from prior art
T1 sequence (P32239 1-447): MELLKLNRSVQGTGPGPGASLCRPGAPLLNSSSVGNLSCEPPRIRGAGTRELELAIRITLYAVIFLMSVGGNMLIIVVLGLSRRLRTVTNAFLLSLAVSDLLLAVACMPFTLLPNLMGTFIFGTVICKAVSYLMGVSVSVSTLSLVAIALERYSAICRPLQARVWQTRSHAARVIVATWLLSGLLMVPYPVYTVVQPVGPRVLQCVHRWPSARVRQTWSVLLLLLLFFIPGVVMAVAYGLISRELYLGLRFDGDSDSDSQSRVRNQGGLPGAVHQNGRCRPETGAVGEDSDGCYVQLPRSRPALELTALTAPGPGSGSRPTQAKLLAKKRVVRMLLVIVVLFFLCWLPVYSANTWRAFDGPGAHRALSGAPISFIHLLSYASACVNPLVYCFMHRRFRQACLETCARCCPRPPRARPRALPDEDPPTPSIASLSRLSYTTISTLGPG

[1] = gastrin analogues labeled with a radionuclide such as 111In; reported from WO 2015/067473 A1
[2] = test system: transplanted CCKBR-expressing A431 cells; conditions: biodistribution in animal models; reported from WO 2015/067473 A1

In the case of “minigastrin: small peptide hormone known to bind CCK2-R with high affinity (WLEEEEEAYGWMDF; ends and bridges not checked; UniProt P01350 79-92, looked up)”, the “affinity of binding to CCK2-R” value (CCK2-R) is listed as “high affinity”.
For “DOTA-(DGln)6-Ala-Tyr-Gly-Trp-Nle-Asp-Phe-NH2 [PP-F10N, reference compound]”, the “chemical stability (resistance to proteolysis and oxidation)” value [1] is listed as “good”, the “accumulation in the kidneys” value [2] is listed as “low accumulation” and the “uptake in transplanted CCKBR-expressing A431 cells” value [2] is listed as “good uptake”.
In the case of “DOTA-(DGlu)6-Ala-Tyr-Gly-Trp-Nle-Asp-Phe-NH2 [PP-F11N]”, the “chemical stability (resistance to proteolysis and oxidation)” value [1] is listed as “good”, the “accumulation in the kidneys” value [2] is listed as “low accumulation” and the “uptake in transplanted CCKBR-expressing A431 cells” value [2] is listed as “good uptake”.
